Experimental data taken from patent publication US20130005646A1 (Novo Nordisk, published 2013).
Starred links: 1 amine or outer side, 2 acyl side, 3 side chain; linkers in the order of their positions; H or OH if unused. Positions of bridges follow the written chain, without caps; N, C: chain ends. Non-standard residues stand in square brackets, D forms with d. *: point of attachment. C20 diacid = O=C(O)CCCCCCCCCCCCCCCCCCC(=O)*; 19‑carboxyheptadecanoyl = not defined here; γGlu = O=C(O)[C@H](CCC(=O)[*:2])N[*:1]; AEEA = NCCOCCOCC(=O)O

T1: rat amylin 3(a) receptor (rat calcitonin(a) receptor + rat RAMP3) (rat, UniProt P32214 25-516; Q9JJ73 23-147)
T1 sequence (looked up) 1: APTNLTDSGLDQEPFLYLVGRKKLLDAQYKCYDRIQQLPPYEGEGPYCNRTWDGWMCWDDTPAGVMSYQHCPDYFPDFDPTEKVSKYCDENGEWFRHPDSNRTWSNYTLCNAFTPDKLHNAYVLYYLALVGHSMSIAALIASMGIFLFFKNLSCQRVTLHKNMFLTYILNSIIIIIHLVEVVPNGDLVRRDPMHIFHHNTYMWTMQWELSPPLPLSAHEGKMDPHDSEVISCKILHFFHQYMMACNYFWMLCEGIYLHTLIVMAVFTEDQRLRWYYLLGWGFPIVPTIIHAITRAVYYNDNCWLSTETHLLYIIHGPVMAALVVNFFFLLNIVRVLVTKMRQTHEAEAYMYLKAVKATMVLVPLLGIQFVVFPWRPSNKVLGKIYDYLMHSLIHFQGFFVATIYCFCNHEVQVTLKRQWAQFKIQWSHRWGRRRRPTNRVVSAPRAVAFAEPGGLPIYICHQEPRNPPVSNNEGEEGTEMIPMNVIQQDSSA
T1 sequence (looked up) 2: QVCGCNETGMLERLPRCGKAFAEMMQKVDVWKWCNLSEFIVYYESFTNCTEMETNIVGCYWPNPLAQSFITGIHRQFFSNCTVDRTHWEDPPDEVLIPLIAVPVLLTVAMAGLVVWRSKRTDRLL

T2: human calcitonin (a) receptor (human, UniProt P30988 25-474)
T2 sequence (looked up): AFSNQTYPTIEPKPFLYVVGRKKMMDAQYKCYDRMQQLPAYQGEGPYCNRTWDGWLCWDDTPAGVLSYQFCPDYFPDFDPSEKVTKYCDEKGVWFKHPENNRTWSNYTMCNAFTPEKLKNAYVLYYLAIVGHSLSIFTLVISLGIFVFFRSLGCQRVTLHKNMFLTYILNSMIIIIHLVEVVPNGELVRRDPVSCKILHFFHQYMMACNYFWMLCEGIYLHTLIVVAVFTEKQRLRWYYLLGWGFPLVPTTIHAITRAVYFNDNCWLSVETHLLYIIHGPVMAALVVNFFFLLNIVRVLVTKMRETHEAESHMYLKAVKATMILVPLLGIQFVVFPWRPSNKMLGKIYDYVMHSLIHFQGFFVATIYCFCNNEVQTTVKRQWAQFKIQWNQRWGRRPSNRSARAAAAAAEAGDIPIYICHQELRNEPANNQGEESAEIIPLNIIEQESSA

T3: rat calcitonin (a) receptor (rat, UniProt P32214 25-516)
T3 sequence (looked up): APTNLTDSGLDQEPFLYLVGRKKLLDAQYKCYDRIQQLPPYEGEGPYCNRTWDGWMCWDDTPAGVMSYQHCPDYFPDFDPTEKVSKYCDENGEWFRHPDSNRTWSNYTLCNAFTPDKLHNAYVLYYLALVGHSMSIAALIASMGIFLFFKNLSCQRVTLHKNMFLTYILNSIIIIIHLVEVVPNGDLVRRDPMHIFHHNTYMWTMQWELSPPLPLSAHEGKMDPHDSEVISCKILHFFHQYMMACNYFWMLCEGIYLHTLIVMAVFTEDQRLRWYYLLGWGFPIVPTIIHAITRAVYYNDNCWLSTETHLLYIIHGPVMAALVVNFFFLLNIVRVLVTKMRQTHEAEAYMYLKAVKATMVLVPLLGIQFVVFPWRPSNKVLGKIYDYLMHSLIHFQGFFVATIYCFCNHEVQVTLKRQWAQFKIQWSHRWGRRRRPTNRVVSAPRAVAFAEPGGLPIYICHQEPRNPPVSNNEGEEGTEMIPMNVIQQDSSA

T4: human amylin 3(a) receptor (human calcitonin receptor + RAMP-3) (human, UniProt P30988 25-474; O60896 24-148)
T4 sequence (looked up) 1: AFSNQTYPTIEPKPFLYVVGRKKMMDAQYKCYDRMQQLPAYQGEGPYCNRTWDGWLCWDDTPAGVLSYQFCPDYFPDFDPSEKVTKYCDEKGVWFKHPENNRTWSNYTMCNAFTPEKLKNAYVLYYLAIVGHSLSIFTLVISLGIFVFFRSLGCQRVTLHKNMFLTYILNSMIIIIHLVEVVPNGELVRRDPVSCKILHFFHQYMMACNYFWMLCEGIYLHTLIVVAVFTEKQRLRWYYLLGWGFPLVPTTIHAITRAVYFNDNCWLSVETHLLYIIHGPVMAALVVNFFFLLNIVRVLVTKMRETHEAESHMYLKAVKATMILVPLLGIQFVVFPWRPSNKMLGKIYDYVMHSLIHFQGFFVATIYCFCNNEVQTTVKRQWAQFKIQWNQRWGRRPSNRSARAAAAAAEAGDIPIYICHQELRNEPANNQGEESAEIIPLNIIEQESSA
T4 sequence (looked up) 2: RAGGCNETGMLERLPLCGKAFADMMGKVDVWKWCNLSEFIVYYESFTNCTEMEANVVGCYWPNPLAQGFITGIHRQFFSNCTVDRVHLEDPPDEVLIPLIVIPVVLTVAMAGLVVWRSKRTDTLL


How the values were obtained:
Test in all cases: cell-based or functional assay
[1] = target: T1, rat amylin 3(a) receptor (rat …)
[2] = target: T2, human calcitonin (a) receptor
[3] = target: T3, rat calcitonin (a) receptor
[4] = target: T4, human amylin 3(a) receptor (human …)

Binder	Amylin receptor rat EC50 [1]	CTa receptor human EC50 [2]	CTa receptor rat EC50 [3]	Amylin receptor human EC50 [4]
{19‑carboxyheptadecanoyl-γGlu-AEEA-AEEA}-[dR][dR]KCNTATCATQRLAEFLHRSSANFGPILPPTNVGSSTY-NH2 (disulfide 4-9; reading uncertain; also: printed as N-alpha-[2-(2-{2-[2-(2-{2-[(S)-4-Carboxy-4-(19-carboxyheptadecanoylamino)butyrylamino]ethoxy}ethoxy)acetylamino]ethoxy}ethoxy)acetyl]-D-Arg-D-Arg-[Glu14,His17,Arg18,Ala21,Ser35]-pramlintide)	0.233 nM	1.11 nM	4.48 nM	0.149 nM
{C20 diacid-γGlu}-EKCNTATCATQRLAEFLHHSSNNFGPILPPTNVGSNTY-NH2 (disulfide 3-8; not fully specified; printed as N-alpha-[(S)-4-Carboxy-4-(19-carboxynonadecanoylamino)butyryl]-Glu-[Glu14,His17]-pramlintide) [N-alpha-[(S)-4-Carboxy-4-(19-carboxynonadecanoylamino)butyryl]-Glu-[Glu14,His17]-pramlintide]	0.476 nM	0.214 nM	1.39 nM	0.13 nM
{19‑carboxyheptadecanoyl-γGlu-AEEA-AEEA}-[dR][dR]KCNTATCATQRLAEFLHRSSNNFGPILPPTNVGSNTY-NH2 (disulfide 4-9; reading uncertain; also: printed as N-alpha-[2-(2-{2-[2-(2-{2-[(S)-4-Carboxy-4-(19-carboxyheptadecanoylamino)butyrylamino]ethoxy}ethoxy)acetylamino]ethoxy}ethoxy)acetyl]-D-Arg-D-Arg-[Glu14,His17,Arg18]-pramlintide)	0.132 nM	0.642 nM	1.89 nM	0.0832 nM

Next, values leading:

Amylin receptor rat EC50 [1]	CTa receptor human EC50 [2]	CTa receptor rat EC50 [3]	Amylin receptor human EC50 [4]	Binder
0.401 nM	0.543 nM	4.87 nM	0.603 nM	{C20 diacid-γGlu}-HHHCHTATCATQRLAEFLHHSSNNFGPILPPTNVGSHTY-NH2 (disulfide 4-9; SMILES CC[C@H](C)[C@H](NC(=O)[C@@H]1CCCN1C(=O)CNC(=O)[C@H](Cc1ccccc1)NC(=O)[C@H](CC(N)=O)NC(=O)[C@H](CC(N)=O)NC(=O)[C@H](CO)NC(=O)[C@H](CO)NC(=O)[C@H](Cc1c[nH]cn1)NC(=O)[C@H](Cc1c[nH]cn1)NC(=O)[C@H](CC(C)C)NC(=O)[C@H](Cc1ccccc1)NC(=O)[C@H](CCC(=O)O)NC(=O)[C@H](C)NC(=O)[C@H](CC(C)C)NC(=O)[C@H](CCCNC(=N)N)NC(=O)[C@H](CCC(N)=O)NC(=O)[C@@H](NC(=O)[C@H](C)NC(=O)[C@@H]1CSSC[C@H](NC(=O)[C@H](Cc2c[nH]cn2)NC(=O)[C@H](Cc2c[nH]cn2)NC(=O)[C@H](Cc2c[nH]cn2)NC(=O)CC[C@H](NC(=O)CCCCCCCCCCCCCCCCCCC(=O)O)C(=O)O)C(=O)N[C@@H](Cc2c[nH]cn2)C(=O)N[C@@H]([C@@H](C)O)C(=O)N[C@@H](C)C(=O)N[C@@H]([C@@H](C)O)C(=O)N1)[C@@H](C)O)C(=O)N[C@@H](CC(C)C)C(=O)N1CCC[C@H]1C(=O)N1CCC[C@H]1C(=O)N[C@H](C(=O)N[C@@H](CC(N)=O)C(=O)N[C@H](C(=O)NCC(=O)N[C@@H](CO)C(=O)N[C@@H](Cc1c[nH]cn1)C(=O)N[C@H](C(=O)N[C@@H](Cc1ccc(O)cc1)C(N)=O)[C@@H](C)O)C(C)C)[C@@H](C)O)
0.348 nM	–	0.287 nM	–	KCNTATCATQRLAEFLRHSSNNFGPILPPTNVGSNTP (N-alpha acylated: C20diacid-gGlu; disulfide Cys2-Cys7; C-terminal amide) [N-alpha-[(S)-4-Carboxy-4-(19-carboxynonadecanoylamino)butyryl]-[Glu14,Arg17,Pro37]-pramlintide]
0.188 nM	0.107 nM	0.539 nM	0.121 nM	{C20 diacid-γGlu}-KCNTATCATQRLAEFLHHSSNNFGPILPPTNVGSNTY-NH2 (disulfide 2-7; SMILES CC[C@H](C)[C@H](NC(=O)[C@@H]1CCCN1C(=O)CNC(=O)[C@H](Cc1ccccc1)NC(=O)[C@H](CC(N)=O)NC(=O)[C@H](CC(N)=O)NC(=O)[C@H](CO)NC(=O)[C@H](CO)NC(=O)[C@H](Cc1c[nH]cn1)NC(=O)[C@H](Cc1c[nH]cn1)NC(=O)[C@H](CC(C)C)NC(=O)[C@H](Cc1ccccc1)NC(=O)[C@H](CCC(=O)O)NC(=O)[C@H](C)NC(=O)[C@H](CC(C)C)NC(=O)[C@H](CCCNC(=N)N)NC(=O)[C@H](CCC(N)=O)NC(=O)[C@@H](NC(=O)[C@H](C)NC(=O)[C@@H]1CSSC[C@H](NC(=O)[C@H](CCCCN)NC(=O)CC[C@H](NC(=O)CCCCCCCCCCCCCCCCCCC(=O)O)C(=O)O)C(=O)N[C@@H](CC(N)=O)C(=O)N[C@@H]([C@@H](C)O)C(=O)N[C@@H](C)C(=O)N[C@@H]([C@@H](C)O)C(=O)N1)[C@@H](C)O)C(=O)N[C@@H](CC(C)C)C(=O)N1CCC[C@H]1C(=O)N1CCC[C@H]1C(=O)N[C@H](C(=O)N[C@@H](CC(N)=O)C(=O)N[C@H](C(=O)NCC(=O)N[C@@H](CO)C(=O)N[C@@H](CC(N)=O)C(=O)N[C@H](C(=O)N[C@@H](Cc1ccc(O)cc1)C(N)=O)[C@@H](C)O)C(C)C)[C@@H](C)O) [N-alpha-[(S)-4-Carboxy-4-(19-carboxynonadecanoylamino)butyryl]-[Glu14,His17]-pramlintide]
0.2 nM	0.155 nM	1.31 nM	0.164 nM	{C20 diacid-γGlu}-HHHCNTATCATQRLAEFLHHSSNNFGPILPPTNVGSHTY-NH2 (disulfide 4-9; SMILES CC[C@H](C)[C@H](NC(=O)[C@@H]1CCCN1C(=O)CNC(=O)[C@H](Cc1ccccc1)NC(=O)[C@H](CC(N)=O)NC(=O)[C@H](CC(N)=O)NC(=O)[C@H](CO)NC(=O)[C@H](CO)NC(=O)[C@H](Cc1c[nH]cn1)NC(=O)[C@H](Cc1c[nH]cn1)NC(=O)[C@H](CC(C)C)NC(=O)[C@H](Cc1ccccc1)NC(=O)[C@H](CCC(=O)O)NC(=O)[C@H](C)NC(=O)[C@H](CC(C)C)NC(=O)[C@H](CCCNC(=N)N)NC(=O)[C@H](CCC(N)=O)NC(=O)[C@@H](NC(=O)[C@H](C)NC(=O)[C@@H]1CSSC[C@H](NC(=O)[C@H](Cc2c[nH]cn2)NC(=O)[C@H](Cc2c[nH]cn2)NC(=O)[C@H](Cc2c[nH]cn2)NC(=O)CC[C@H](NC(=O)CCCCCCCCCCCCCCCCCCC(=O)O)C(=O)O)C(=O)N[C@@H](CC(N)=O)C(=O)N[C@@H]([C@@H](C)O)C(=O)N[C@@H](C)C(=O)N[C@@H]([C@@H](C)O)C(=O)N1)[C@@H](C)O)C(=O)N[C@@H](CC(C)C)C(=O)N1CCC[C@H]1C(=O)N1CCC[C@H]1C(=O)N[C@H](C(=O)N[C@@H](CC(N)=O)C(=O)N[C@H](C(=O)NCC(=O)N[C@@H](CO)C(=O)N[C@@H](Cc1c[nH]cn1)C(=O)N[C@H](C(=O)N[C@@H](Cc1ccc(O)cc1)C(N)=O)[C@@H](C)O)C(C)C)[C@@H](C)O)
